From article PMC8023661, “Engineering of Ancestors as a Tool to Elucidate Structure, Mechanism, and Specificity of Extant Terpene Cyclase” (Journal of the American Chemical Society, 2021) come the findings set out here.

Series [1] deals with T1, SvS-WT (Streptomyces violens, UniProt P0DPK6).
T1 construct: extant wild-type enzyme, expressed in E. coli BL21(DE3), purified and desalted; dimeric in solution
T1 sequence (P0DPK6 1-359): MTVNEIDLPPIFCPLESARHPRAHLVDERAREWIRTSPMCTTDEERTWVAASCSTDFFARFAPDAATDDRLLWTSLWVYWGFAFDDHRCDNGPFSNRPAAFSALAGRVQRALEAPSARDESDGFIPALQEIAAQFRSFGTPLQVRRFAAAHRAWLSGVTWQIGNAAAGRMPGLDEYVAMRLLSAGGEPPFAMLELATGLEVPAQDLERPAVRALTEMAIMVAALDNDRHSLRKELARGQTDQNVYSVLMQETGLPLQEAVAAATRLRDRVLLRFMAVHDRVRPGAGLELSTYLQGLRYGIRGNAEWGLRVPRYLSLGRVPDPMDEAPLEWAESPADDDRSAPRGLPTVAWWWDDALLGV
Briefly: in vitro product formation, GC. The series is classed as biochemical. To be noted: 2 µM enzyme, 3 h.

Series [2] concerns the target T2, SvS-A2 (synthetic construct, UniProt Z9I7L2B0V8, A89H/A224I).
T2 construct: homodimer; first resolved N-terminal residue Asp09
T2 sequence (Z9I7L2B0V8 1-361 A89H/A224I): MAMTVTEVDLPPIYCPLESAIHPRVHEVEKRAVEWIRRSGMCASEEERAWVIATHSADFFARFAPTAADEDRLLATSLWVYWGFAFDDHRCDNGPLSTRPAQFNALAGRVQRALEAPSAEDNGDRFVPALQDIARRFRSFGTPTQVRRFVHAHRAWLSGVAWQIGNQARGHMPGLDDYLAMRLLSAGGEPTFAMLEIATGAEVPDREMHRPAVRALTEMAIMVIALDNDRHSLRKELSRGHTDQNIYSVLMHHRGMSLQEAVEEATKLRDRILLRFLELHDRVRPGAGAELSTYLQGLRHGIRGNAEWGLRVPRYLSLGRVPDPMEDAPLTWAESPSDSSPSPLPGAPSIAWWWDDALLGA
Briefly: Malachite Green assay; GC-FID competition experiment. The series is classed as biochemical. To be noted: 60 µM each FPP and GGPP, ca. 400 nM enzyme, 30 °C, 3 h; library variants carry Ala89His.

Series [3] has as its target spiroviolene synthase (SvS) from Streptomyces violens, extant enzyme (Streptomyces violens). Briefly: SEC; size exclusion chromatography of the enzyme in solution; conditions in the Supporting Methods (not shown). (In general: SEC sorts molecules by how far they enter the pores of the column.)
Series [4] addresses T3, SvS-A2 (synthetic construct, UniProt Z9I7L2B0V8, A89H/W156Y).
T3 construct: homodimer; first resolved N-terminal residue Asp09
T3 sequence (Z9I7L2B0V8 1-361 A89H/W156Y): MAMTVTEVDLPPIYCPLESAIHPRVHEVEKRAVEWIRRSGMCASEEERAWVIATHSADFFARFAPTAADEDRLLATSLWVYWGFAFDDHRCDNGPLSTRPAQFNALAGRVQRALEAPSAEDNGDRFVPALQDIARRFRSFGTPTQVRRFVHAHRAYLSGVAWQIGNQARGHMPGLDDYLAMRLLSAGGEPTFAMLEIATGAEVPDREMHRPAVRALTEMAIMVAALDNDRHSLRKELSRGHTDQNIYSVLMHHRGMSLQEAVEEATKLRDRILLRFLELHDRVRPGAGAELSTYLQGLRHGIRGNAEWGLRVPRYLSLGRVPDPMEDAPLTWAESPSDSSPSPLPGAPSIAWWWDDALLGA
Nature of the series: Malachite Green assay; GC-FID competition experiment. Type of series: biochemical. To be noted: 60 µM each FPP and GGPP, ca. 400 nM enzyme, 30 °C, 3 h; library variants carry Ala89His.

Substrate in series [5]: CC(C)=CCC/C(C)=C/CC/C(C)=C/CO[P@@](=O)(O)OP(=O)(O)O
Briefly: initial rates of hedycaryol formation, Michaelis-Menten fit. The series is classed as biochemical, synthetic construct. As to conditions: 0.5 µM enzyme.

Substrate in series [6]: CC(C)=CCC/C(C)=C/CC/C(C)=C/CC/C(C)=C/COP(=O)(O)OP(=O)(O)O
Briefly: initial rates of spiroviolene formation, cooperative fit. The series is classed as biochemical, synthetic construct. As to conditions: 0.5 µM enzyme, Hill coefficient fit. An excerpt: initial rates of spiroviolene formation, cooperative fit on SvS-A2 | The KM value for GGPP reported herein is twice as high as previously reported

Turning to `CC(C)=CCC/C(C)=C/CC/C(C)=C/COP(=O)(O)OP(=O)(O)O` [FPP], the “in vitro product formation, GC” value in series [1] (60 µM FPP, 50 mM Tris-HCl pH 7.4, 30 °C) is reported as “the extant enzyme in fact showed higher activity with FPP than GGPP”. In addition, the “Malachite Green assay; GC-FID competition experiment” value in series [2] is “Ala224Ile (group IV) reverses substrate preference of the reconstructed ancestral enzyme”.

As for “spiroviolene synthase (SvS) from Streptomyces violens, extant enzyme”, the stoichiometry N – broadly, the number of molecules, sites or subunits per partner or assembly – in series [3] amounted to 2.

Take `CC(C)=CCC/C(C)=C/CC/C(C)=C/CC/C(C)=C/COP(=O)(O)OP(=O)(O)O` [GGPP]: the “in vitro product formation, GC” value in series [1] (60 µM GGPP, 30 °C) was “both enzymes accepted FPP and GGPP as substrates”. In series [4], the “Malachite Green assay; GC-FID competition experiment” value is “A Trp156Tyr exchange (Group III) results in a highly active and diterpene specific SvS-A2 variant”.

B1: SvS-A2 (synthetic construct) (protein)
chain: MAMTVTEVDLPPIYCPLESAIHPRVHEVEKRAVEWIRRSGMCASEEERAWVIATHSADFFARFAPTAADEDRLLATSLWVYWGFAFDDARCDNGPLSTRPAQFNALAGRVQRALEAPSAEDNGDRFVPALQDIARRFRSFGTPTQVRRFVHAHRAWLSGVAWQIGNQARGHMPGLDDYLAMRLLSAGGEPTFAMLEIATGAEVPDREMHRPAVRALTEMAIMVAALDNDRHSLRKELSRGHTDQNIYSVLMHHRGMSLQEAVEEATKLRDRILLRFLELHDRVRPGAGAELSTYLQGLRHGIRGNAEWGLRVPRYLSLGRVPDPMEDAPLTWAESPSDSSPSPLPGAPSIAWWWDDALLGA
notes: homodimer; first resolved N-terminal residue Asp09
As for B1, in series [5], the Km (commonly the substrate concentration at which the rate is half of its maximum) was determined as 28 ± 11 µM and the kcat is given as 0.3 ± 0.04 × 10^-3 s^-1. In addition, in series [6], the Michaelis-Menten constant (Km) is 49 ± 6 µM and the kcat is recorded as 5.8 ± 0.6 × 10^-3 s^-1.
